In patent publication US20210301026A1 (ULTRAHUMAN TWELVE, published 2021):
Changes are numbered by the printed parent chain. In names and notes the source's numbering stands. Read-outs that look alike come from different tables or passages of the source. One block for each binder: values may come before it.

Key:
[1] = molecular target: T1, monomeric human CSF1R ectodomain protein (human, UniProt P07333 20-517); assay: AlphaScreen competition with mu0301 IgG4(S228P) for biotinylated monomeric human CSF1R
T1 construct: also called biotinylated monomeric human CSF1R
Description: The AlphaScreen assay (Perkin Elmer) was performed in a 25 μl final volume in 384-well white microtiter plates (Greiner). The reaction buffer contained 1×PBS pH 7.3 (Oxoid, Cat. nr. BR0014G) and 0.05% (v/v) Tween® 20 (Sigma, Cat. nr. P9416). Purified IgG samples were titrated in three fold serial dilutions starting at 500 nM final concentration and incubated with biotinylated human CSF1R for 20 minutes at room temperature. […] The emission of light was measured in the EnVision multilabel plate reader (Perkin Elmer) and analysed using the EnVision manager software. Values were reported as Counts Per Second (CPS) and corrected for crosstalk. The EC50 values were calculated using the […] in GraphPad Prism software (GraphPad Software, La Jolla, Calif.).

[2] = molecular target: T2, human CSF1R human Fc tagged recombinant protein (human, UniProt P07333 20-517); assay: direct titration ELISA on coated human CSF1R-Fc, IgG4(S228P) format, OD 450 nm
T2 construct: also called human CSF1R-Fc
Description: (§1) Binding and cross-reactivity of the lead panel to the recombinant proteins was initially assessed by binding ELISA. The human CSF1R human Fc tagged recombinant protein and the cynomolgus monkey CSF1R human Fc tagged recombinant protein were coated to the surface of MaxiSorp™ flat-bottom 96 well plate at 1 μg/ml. The purified IgG samples were titrated in two fold serial dilutions starting from 500 nM to 0.008 nM and allowed to bind to the coated antigens. The Fabs were detected using mouse anti-c-myc antibody followed by donkey anti-mouse IgG conjugated to horseradish peroxidase. The IgGs were detected using the mouse anti-human IgG conjugated to horseradish peroxidase. Binding signals were visualized with 3,3′,5,5′-Tetramethylbenzidine Substrate Solution (TMB) and the absorbance measured at 450 nm.

[3] = molecular target: T3, human CSF1R, membrane-presented on cells (human, UniProt P07333 20-972); assay: flow cytometry on HEK-293 cells expressing human CSF1R, MFI
T3 construct: HEK-293 cells transiently transfected with human CSF1R (flow cytometry); the native receptor on primary human monocytes in the proliferation assay; also called human CSF1R+ HEK-293 cells; CSF1R on primary human CD14+ monocytes

[4] = molecular target: T4, cynomolgus monkey CSF1R human Fc tagged recombinant protein (cynomolgus monkey, UniProt P07333 20-517 (human entry), limits assumed); assay: direct titration ELISA on coated cyno CSF1R-Fc, IgG4(S228P) format, OD 450 nm
T4 construct: also called cyno CSF1R-Fc
T4 chain: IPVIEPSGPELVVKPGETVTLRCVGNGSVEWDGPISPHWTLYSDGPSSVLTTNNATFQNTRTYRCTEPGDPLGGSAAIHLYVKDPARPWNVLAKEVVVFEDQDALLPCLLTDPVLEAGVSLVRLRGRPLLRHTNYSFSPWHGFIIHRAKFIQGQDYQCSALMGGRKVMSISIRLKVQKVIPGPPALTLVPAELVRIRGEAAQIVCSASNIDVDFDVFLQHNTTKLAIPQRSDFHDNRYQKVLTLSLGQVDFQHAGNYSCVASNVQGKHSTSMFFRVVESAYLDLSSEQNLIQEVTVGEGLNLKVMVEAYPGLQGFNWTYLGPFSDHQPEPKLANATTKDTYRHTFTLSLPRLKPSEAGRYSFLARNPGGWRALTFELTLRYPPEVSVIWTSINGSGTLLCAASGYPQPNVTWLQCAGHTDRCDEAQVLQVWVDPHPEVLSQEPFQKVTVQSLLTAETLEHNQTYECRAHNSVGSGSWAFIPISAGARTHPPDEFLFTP
Description: as §1

[5] = molecular target: T5, monomeric cynomolgus monkey CSF1R ectodomain protein (cynomolgus monkey, UniProt P07333 20-517 (human entry)); assay: SPR Biacore, IgG captured, monomeric CSF1R analyte
T5 construct: also called monomeric cyno CSF1R; Cyno CSF1R
T5 chain: T4 chain
Description: (§2) Affinity (KD) of purified IgGs was determined via SPR with antigen in-solution on a Biacore 3000 (GE). A mouse anti-human antibody (CH1 specific) was immobilized on a CM5 Sensor Chip to a level of 2000 RU in acetate buffer at pH 4.5 using amine coupling following the Wizard instructions for two channels. One channel was used for background signal correction. The standard running buffer HBS-EP pH 7.4 was used. Regeneration was performed with a single injection of 10 μl of 10 mM Glycine at pH 1.5 at 20 μl/minute. IgG samples were injected for 2 minutes at 50 nM at 30 μl/min followed by and off-rate of 60 seconds. The monomeric ectodomain protein (human CSF1R or cynomolgus monkey CSF1R) was injected in two fold serial dilutions from 100 nM down to 3.1 nM, for 2 minutes at 30 μl/min followed by an off-rate of 300 seconds. The obtained sensorgrams were analysed using the Biacore 3000 evaluation (BIAevaluation) software. The KD was calculated by simultaneous fitting of the association and dissociation phases to a 1:1 Langmuir binding model.
(§3) Biacore analyses of binding affinity were performed for all IgGs to solution-phase, monomeric human and cyno CSF1R proteins (Table 6). […] Affinity differentials of less than 3-fold between human and cyno target orthologs are highly beneficial in pre-clinical drug development analyses as they allow more accurate design and interpretation of e.g. monkey safety, PK and PD modelling experiments.

[6] = molecular target: T1, monomeric human CSF1R ectodomain protein; assay: SPR Biacore, IgG captured, monomeric CSF1R analyte
Description: as §2, §3

[7] = molecular target: T4, cynomolgus monkey CSF1R human Fc tagged …; assay: direct titration ELISA on coated cyno CSF1R-Fc, IgG4(S228P) format, OD 450 nm
Description: as §1

[8] = molecular target: T5, monomeric cynomolgus monkey CSF1R …; assay: SPR Biacore; KD on monomeric cyno CSF1R against KD of the same antibody on monomeric human CSF1R as reference
Description: as §2

[9] = molecular target: T5, monomeric cynomolgus monkey CSF1R …; assay: SPR Biacore, IgG captured, monomeric CSF1R analyte
Description: as §2

[10] = molecular target: T1, monomeric human CSF1R ectodomain protein; assay: SPR Biacore, IgG captured, monomeric CSF1R analyte; remark: listed apart in the source
Description: as §2

human insulin = molecular target: T6, human insulin (human, UniProt P01308 25-54; P01308 90-110, limits assumed); assay: ELISA on human insulin (development risk, polyreactivity), binding score
T6 construct: Coated antigen of the polyreactivity ('PK-risk indicator') ELISA

[11] = molecular target: T5, monomeric cynomolgus monkey CSF1R …; assay: SPR Biacore; KD on monomeric cyno CSF1R against KD of the same clone on monomeric human CSF1R as reference
Description: as §2

T6 sequence (P01308 25-54 limits assumed, chain 1 of 2): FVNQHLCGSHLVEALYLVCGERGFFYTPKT
T6 sequence (P01308 90-110 limits assumed, chain 2 of 2): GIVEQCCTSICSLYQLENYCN

- IC50 [1]: 2.56 nM
- EC50 (read off the curve) [2]: ~0.08 nM
- EC50 (read off the curve) [3]: ~1 nM
- EC50 (read off the curve) [4]: ~0.09 nM
- Kd [5]: 0.85 nM
- koff [5]: 0.00026 s⁻¹
- kon [5]: 310000 M⁻¹ s⁻¹
- Kd [6]: 0.29 nM
- koff [6]: 0.00042 s⁻¹
- kon [6]: 1.5e+06 M⁻¹ s⁻¹
B1: 26B07 (antibody, human IgG4, V domains shown)
VH: QVQLVQSGAEVKKPGSSVKVSCKASGYTFSSYYMIWVRQAPGQGLEWMGDINPYNGGANYAQKFQGRVTITADESTSTAYMELSSLRSEDTAVYYCAREGPYFSNLYVMDYWGQGTLVTVSS
VL: EIVLTQSPATLSLSPGERATLSCRASQSVEYQGDNYLNWYQQKPGQAPRLLIYAASNRATGIPARFSGSGSGTDFTLTISSLEPEDFAVYYCQLSNEDLLTFGGGTKVEIK
notes: Library-derived clone, tested as human IgG4(S228P)/Ckappa IgG; framework residue limits counted on the grafts

- EC50 (read off the curve) [7]: ~0.07 nM
- IC50 [1]: 2.38 nM
- human/cyno affinity differential [8]: > 3 fold
- EC50 (read off the curve) [3]: ~1 nM
- EC50 (read off the curve) [4]: ~0.08 nM
- Kd [9]: 0.66 nM
- koff [9]: 0.00033 s⁻¹
- kon [9]: 500000 M⁻¹ s⁻¹
- Kd [10]: 0.21 nM
- koff [10]: 0.00047 s⁻¹
- kon [10]: 2.3e+06 M⁻¹ s⁻¹
- Kd [5]: 0.66 nM
- koff [5]: 0.00033 s⁻¹
- kon [5]: 500000 M⁻¹ s⁻¹
- Kd [6]: 0.21 nM
- koff [6]: 0.00047 s⁻¹
- kon [6]: 2.3e+06 M⁻¹ s⁻¹
- binding result (human insulin): no binding
B2: humanized anti-CSF1R antibody 0301 (hu0301) (antibody, human IgG4, V domains shown)
VH: B1 VH with S30T, S31D, Y32N, A58T, N59T, Y60F, A61N, Q65K, E74K, G100S
VL: B1 VL with R24K, E30D, Q32D, L37M, R58L, A59E, T60S, Q93H, L100S
notes: also called mAb-1

- IC50 [1]: 2.16 nM
- human/cyno affinity differential [11]: < 3 fold
- Kd [5]: 0.42 nM
- koff [5]: 0.00023 s⁻¹
- kon [5]: 550000 M⁻¹ s⁻¹
- Kd [6]: 0.19 nM
- koff [6]: 0.00034 s⁻¹
- kon [6]: 1.8e+06 M⁻¹ s⁻¹
B3: 29H09 (antibody, human IgG4, V domains shown)
VH: B1 VH with S30T
VL: B1 VL with E30S, Q32E, D34E
notes: as for B1

- IC50 [1]: 1.53 nM
- human/cyno affinity differential [11]: < 3 fold
- Kd [5]: 0.25 nM
- koff [5]: 0.00014 s⁻¹
- kon [5]: 570000 M⁻¹ s⁻¹
- Kd [6]: 0.11 nM
- koff [6]: 0.00019 s⁻¹
- kon [6]: 1.9e+06 M⁻¹ s⁻¹
B4: 30E06 (antibody, human IgG4, V domains shown)
VH: B1 VH with S30T, A58T, N59T
VL: B1 VL with E30S, Q32E, D34E, N38A, R58L
notes: Library-derived clone; tested as human IgG4(S228P) / human Ckappa IgG; also called 30E6; mAb-3
